Results reported in patent US20240116985A1 (published 2024).
Starred links: 1 amine or outer side, 2 acyl side, 3 side chain; linkers in the order of their positions; H or OH if unused. Positions of bridges follow the written chain, without caps; N, C: chain ends. Non-standard residues stand in square brackets, D forms with d. Primed or numbered codes have the meaning given here. ReN = (R)-5-(((allyloxy)carbonyl)(methyl)amino)-2-amino-2-methylpentanoic acid, stapling residue, C=CCOC(=O)N(C)CCC[C@@](C)(N[*:1])C(=O)[*:2]; Az″ = 1-((allyloxy)carbonyl)-3-aminoazetidine-3-carboxylic acid (staple end via allyl carbamate), C=CCOC(=O)N1CC(N[*:1])(C(=O)[*:2])C1; PyrS″ = (S)-1-((allyloxy)carbonyl)-3-aminopyrrolidine-3-carboxylic acid (stapling residue), C=CCOC(=O)N1CC[C@@](N[*:1])(C(=O)[*:2])C1; SeN = (S)-5-(((allyloxy)carbonyl)(methyl)amino)-2-amino-2-methylpentanoic acid, C=CCOC(=O)N(C)CCC[C@](C)(N[*:1])C(=O)[*:2]; SdN = (S)-4-(((allyloxy)carbonyl)(methyl)amino)-2-amino-2-methylbutanoic acid, C=CCOC(=O)N(C)CC[C@](C)(N[*:1])C(=O)[*:2]; SgN = (S)-3-(((allyloxy)carbonyl)(methyl)amino)-2-amino-2-methylpropanoic acid, C=CCOC(=O)N(C)C[C@](C)(N[*:1])C(=O)[*:2]; PyrS = (S)-1-((allyloxy)carbonyl)-3-aminopyrrolidine-3-carboxylic acid, C=CCOC(=O)N1CC[C@@](N[*:1])(C(=O)[*:2])C1; Az(3) = 1-((allyloxy)carbonyl)-3-aminoazetidine-3-carboxylic acid, C=CCOC(=O)N1CC(N[*:1])(C(=O)[*:2])C1; R7″ = (R)-2-amino-2-methylnon-8-enoic acid (stapling residue), C=CCCCCC[C@@](C)(N[*:1])C(=O)[*:2]; R7 = (R)-2-amino-2-methylnon-8-enoic acid, C=CCCCCC[C@@](C)(N[*:1])C(=O)[*:2]; R6 = (R)-2-amino-2-methyloct-7-enoic acid, C=CCCCC[C@@](C)(N[*:1])C(=O)[*:2]; R4 = (R)-2-amino-2-methylhex-5-enoic acid, C=CCC[C@@](C)(N[*:1])C(=O)[*:2]; S7 = C[C@@](CCCCCC=[*:3])(N[*:1])C(=O)[*:2]; R8 = C=CCCCCCC[C@@](C)(N)C(=O)O; Aad = N[C@@H](CCCC(=O)O)C(=O)O; Cha = N[C@@H](CC1CCCCC1)C(=O)O; S8 = C=CCCCCCC[C@](C)(N)C(=O)O; R5 = C=CCCC[C@@](C)(N)C(=O)O; hLeu = CC(C)CC[C@H](N)C(=O)O; S5 = C=CCCC[C@](C)(N)C(=O)O

T1: full-length beta-Catenin (Uniprot ID P35222) (Homo sapiens (Human), UniProt P35222 2-781)
T1 construct: The assay text says 'full-length'; also called B-Catenin; bCat
T1 sequence: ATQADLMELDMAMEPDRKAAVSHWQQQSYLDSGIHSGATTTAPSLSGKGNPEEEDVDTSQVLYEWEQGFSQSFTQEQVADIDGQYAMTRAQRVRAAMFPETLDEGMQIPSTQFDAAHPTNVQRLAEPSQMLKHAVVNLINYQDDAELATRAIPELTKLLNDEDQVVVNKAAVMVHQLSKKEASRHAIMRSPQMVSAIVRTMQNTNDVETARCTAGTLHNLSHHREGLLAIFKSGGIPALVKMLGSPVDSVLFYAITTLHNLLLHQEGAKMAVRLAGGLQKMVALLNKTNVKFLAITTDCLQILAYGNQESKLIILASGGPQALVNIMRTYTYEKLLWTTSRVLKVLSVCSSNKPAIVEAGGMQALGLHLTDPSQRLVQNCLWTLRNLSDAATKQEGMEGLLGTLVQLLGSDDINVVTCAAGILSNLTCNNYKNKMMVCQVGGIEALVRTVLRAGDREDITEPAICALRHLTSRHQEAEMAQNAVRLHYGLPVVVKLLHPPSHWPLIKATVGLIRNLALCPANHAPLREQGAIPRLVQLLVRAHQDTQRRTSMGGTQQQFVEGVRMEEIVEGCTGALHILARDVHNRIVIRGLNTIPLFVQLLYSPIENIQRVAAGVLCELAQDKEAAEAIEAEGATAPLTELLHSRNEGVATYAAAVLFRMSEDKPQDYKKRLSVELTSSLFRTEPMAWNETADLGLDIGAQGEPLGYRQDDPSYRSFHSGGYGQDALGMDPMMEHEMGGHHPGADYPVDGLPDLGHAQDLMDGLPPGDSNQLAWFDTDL

B1: I-28 (peptide)
peptide: FDAXDDAAFVXFWQ
modifications: not fully specified; Ac-Phe-Asp-Ala-ReN-Asp-Asp-Ala-Ala-Phe-Val-S6-Phe-Trp-Gln-NH2 as printed: N-terminal acetyl, C-terminal amide, ReN at 4 stapled to S6 at 11
notes: Stapled peptide composition
B2: I-15 (peptide)
peptide: Ac-FDA[R8]D[Cha]AAFV[PyrS]FWQ-NH2
modifications: staple 4-11; not fully specified; printed as Ac-Phe-Asp-Ala-R8-Asp-Cha-Ala-Ala-Phe-Val-PyrS-Phe-Trp-Gln-NH2
notes: Stapled peptide composition
B3: I-29 (peptide)
peptide: FDAXDDAAFVXFWQ
modifications: not fully specified; Ac-Phe-Asp-Ala-ReN-Asp-Asp-Ala-Ala-Phe-Val-S6-Phe-Trp-Gln-NH2 as printed: N-terminal acetyl, C-terminal amide, ReN at 4 stapled to S6 at 11
notes: Stapled peptide composition
B4: I-32 (peptide)
peptide: FDAXDDAAFVXFWQ
modifications: not fully specified; Ac-Phe-Asp-Ala-Az-Asp-Asp-Ala-Ala-Phe-Val-S7-Phe-Trp-Gln-NH2 as printed: N-terminal acetyl, C-terminal amide, Az at 4 stapled to S7 at 11
notes: Stapled peptide composition
B5: I-31 (peptide)
peptide: Ac-FDA[R7]DDAAFV[PyrS]FWQ-NH2
modifications: staple 4-11; not fully specified; printed as Ac-Phe-Asp-Ala-R7-Asp-Asp-Ala-Ala-Phe-Val-PyrS-Phe-Trp-Gln-NH2
notes: Stapled peptide composition
B6: I-24 (peptide)
peptide: Ac-FDA[R8]DDA[Aad]FV[PyrS]FWQ-NH2
modifications: staple 4-11; not fully specified; printed as Ac-Phe-Asp-Ala-R8-Asp-Asp-Ala-Aad-Phe-Val-PyrS-Phe-Trp-Gln-NH2
notes: Stapled peptide composition
B7: I-18 (peptide)
peptide: Ac-FDA[R8]D[hLeu]AAFV[PyrS]FWQ-NH2
modifications: staple 4-11; not fully specified; printed as Ac-Phe-Asp-Ala-R8-Asp-hLeu-Ala-Ala-Phe-Val-PyrS-Phe-Trp-Gln-NH2
notes: Stapled peptide composition
B8: I-16 (peptide)
peptide: Ac-FDA[R8]D[Cha]AAFV[PyrS]FWQ-NH2
modifications: staple 4-11; not fully specified; printed as Ac-Phe-Asp-Ala-R8-Asp-Cha-Ala-Ala-Phe-Val-PyrS-Phe-Trp-Gln-NH2
notes: Stapled peptide composition

Biological target: T1, full-length beta-Catenin (Uniprot ID …)
Test: AlphaScreen competition vs biotin-TCF4(10-53) on full-length beta-catenin
Protocol: Equal volume of the titrated peptide was added to the plate and incubated for 15 minutes at 20° C. Then 4 uL of donor and 4 uL acceptor beads at 10 ug/mL were added to the plate, for a 16 uL reaction pool and protected from light for 60 minutes at 20° C. prior to read. Reads were performed on a CLARIOstar plate reader (BMG Labtech) in duplicate, and data were fitted to a 1:1 binding model with hill slope using an in-house script. All provided concentrations are final concentrations.

| EC50 [µM] | Binder |
| --- | --- |
| 9.22 | Ac-FDA[R8]DDA[Aad]FV[PyrS″]FWQ-NH2 (staple 4-11; also: earlier-eluting HPLC peak, Stapled peptide composition) [I-23] |
| 8.11 | Ac-FDA[R6]DDAAFV[SeN]FWQ-NH2 (staple 4-11, Stapled peptide composition) [I-26] |
| ≥ 10 | Ac-FDA[R5]DDAAFV[SdN]FWQ-NH2 (staple 4-11, Stapled peptide composition) [I-37] |
| 8.46 | B1 |
| ≥ 10 | B2 |
| ≥ 10 | B3 |
| 6.82 | Ac-FDA[ReN]DDAAFV[S5]FWQ-NH2 (staple 4-11, Stapled peptide composition) [I-27] |
| 7.35 | B4 |
| 7.22 | B5 |
| 8.57 | B6 |
| ≥ 10 | B7 |
| ≥ 10 | B8 |
| 9.98 | Ac-FDA[Az(3)]DDAAFV[S7]FWQ-NH2 (staple 4-11, Stapled peptide composition) [I-33] |
| 9.54 | Ac-FDA[Az″]DDAAFV[S8]FWQ-NH2 (staple 4-11, Stapled peptide composition) [I-35] |
| ≥ 10 | Ac-FDA[R8]DDAAFV[SgN]FWQ-NH2 (staple 4-11, Stapled peptide composition) [I-34] |
| 8.82 | Ac-FDA[R7″]DDAAFV[PyrS″]FWQ-NH2 (staple 4-11, Stapled peptide composition) [I-30] |
| ≥ 10 | Ac-FDA[R8]D[hLeu]AAFV[PyrS]FWQ-NH2 (staple 4-11, Stapled peptide composition) [I-17] |
| 8.27 | Ac-FDA[R4]DDAAFV[SeN]FWQ-NH2 (staple 4-11, Stapled peptide composition) [I-36] |
| 7.22 | Ac-FDA[R5]DDAAFV[SeN]FWQ-NH2 (staple 4-11, Stapled peptide composition) [I-25] |
